{
  "source": "paper PMC12363175",
  "target": "BANAL-20-52 S ectodomain with stabilizing mutations",
  "test": "AUC",
  "data": [
    {"substance": "peptidase domain (PD) of hACE2 (from UniProt Q9BYF1 19-615) (domain or fragment)", "values": [
      {"measurement": "stoichiometry N (hACE2 molecules per S trimer)", "result": 2}
    ]}
  ]
}
